Assay [1] has as its target α1Cx43 (connexin 43), full-length, membrane-integrated (UniProt P08050). The assay can be described thus: sucrose gradient velocity sedimentation.
In assay [2] the target is β1Cx32 (connexin 32), full-length, membrane-integrated (UniProt P08033). As to the kind of experiment: sucrose gradient velocity sedimentation.

Broadly, the stoichiometry N is the number of molecules, sites or subunits per partner or assembly. “α1Cx43 (connexin 43), full-length, membrane-integrated (from UniProt P08050 1-382) (natural protein)” yielded a stoichiometry N in assay [1] of 6.

In assay [2], “β1Cx32 (connexin 32), full-length, membrane-integrated (from UniProt P08033 1-283) (natural protein)” returned a stoichiometry N of 6.

These data come from PMC7121760.
